Experimental data from US20160244528A1 (SORRENTO THERAPEUTICS, published 2016).
Where a chain is given by its changes, count along the chain named.

T1: mouse CD137/Fc (mouse, UniProt P20334 24-187)
T1 construct: Coated on the ELISA plate at 2 µg/mL; also called murine CD137; not shown: Fc part
T1 sequence (looked up): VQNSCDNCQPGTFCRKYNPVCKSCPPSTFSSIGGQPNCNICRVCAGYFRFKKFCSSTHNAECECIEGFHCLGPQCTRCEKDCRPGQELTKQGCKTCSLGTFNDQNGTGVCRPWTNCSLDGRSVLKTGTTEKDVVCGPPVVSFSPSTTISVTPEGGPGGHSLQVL

B1: anti-CD137 antibody D6 (antibody, V domains shown)
VH: QMQLVQSGAEVKKPGASVKVSCKASGYTFTGYYMHWVRQAPGQGLEWMGWINPNSGGTNYAQKFQGRVTITRDTSASTAYMELSSLRSEDTAVYYCAREGEAVGLDLDYWGQGTLVTVSS
VL: SYELTQPPSVSVAPGKTARITCGGNNIGSKSVHWYQQKPGQAPVLVIYYDSDRPSGIPERFSGSNSGNTATLTISRVEAGDEADYYCQVWDSSSVVFGGGTQLTVL
notes: Fully human antibody, captured through anti-human Fc in SPR and detected with anti-human Lambda in ELISA
B2: anti-CD137 antibody MSH1 (antibody, V domains shown)
VH: B1 VH with T28N, T30G, I51V, N54H, V103W, Y109L
VL: B1 VL
notes: Variant of D6 with the same light chain variable domain
B3: anti-CD137 antibody MD4 (antibody, V domains shown)
VH: B1 VH with T28N, F29W, N54M, S55A, E101W, V103R, L105V, D106E, Y109M
VL: B1 VL
notes: as for B2
B4: anti-CD137 antibody MSB7 (antibody, V domains shown)
VH: B1 VH with T28S, T30S, I51V, N54M, E101M, V103M, G104R, D106E, Y109K
VL: B1 VL
notes: as for B2
B5: anti-CD137 antibody MC8 (antibody, V domains shown)
VH: B1 VH with T28M, F29P, T30D, N54R, S55T, E101A, V103F, G104R, D106E, Y109A
VL: B1 VL
notes: as for B2
B6: anti-CD137 antibody MSC8 (antibody, V domains shown)
VH: B1 VH with T28N, T30G, I51V, N54K
VL: B1 VL
notes: as for B2
B7: anti-CD137 antibody MB12 (antibody, V domains shown)
VH: B1 VH with T28S, F29L, T30E
VL: B1 VL
notes: as for B2
B8: anti-CD137 antibody MSA11 (antibody, V domains shown)
VH: B1 VH with T28S, I51V, N54K, E101W, V103R, G104R, L105I, Y109E
VL: B1 VL
notes: as for B2
B9: anti-CD137 antibody MB3 (antibody, V domains shown)
VH: B1 VH with T28Q, F29M, T30R
VL: B1 VL
notes: as for B2

These binders were tested against T2, Recombinant human CD137/His (human, UniProt Q07011 24-186) (assay: SPR (Biacore), antibody captured on anti-human Fc, human CD137/His as analyte, 1:1 fit).
T2 construct: Analyte of the SPR assay; also called 4-1BB; TNFRSF9; not shown: His tag
Procedure: This example illustrates binding affinities of exemplary anti-CD137 antibodies disclosed herein. Affinities were determined using surface plasmon resonance (Biacore). Briefly, anti-human Fc antibody (GE, BR-1008-39) was immobilized on CM5 sensor chip to approximately 1000 RU using standard NHS/EDC coupling methodology. Antibodies (about 10 μg/ml) were captured for 60 s at a flow rate 10 μl/min Recombinant human CD137/His was serially diluted in running buffer (HBS-EP). All measurements were conducted with a flow rate of 30 μL/min Surfaces were regenerated with 3M MgCl₂ for 60 s. A 1:1 (Langmuir) binding model was used to fit the data.

Kd | koff | kon | Ka | Binder
203 nM | 0.0814 s⁻¹ | 401000 M⁻¹ s⁻¹ |  | B1
 | 0.0324 s⁻¹ | 369000 M⁻¹ s⁻¹ | 1.14e+07 M⁻¹ | B2
88.9 nM | 0.0512 s⁻¹ | 576000 M⁻¹ s⁻¹ | 1.12e+07 M⁻¹ | B3
 | 0.00756 s⁻¹ | 456000 M⁻¹ s⁻¹ | 6.03e+07 M⁻¹ | B4
 | 0.00628 s⁻¹ | 208000 M⁻¹ s⁻¹ | 3.32e+07 M⁻¹ | B5
 | 0.0615 s⁻¹ | 282000 M⁻¹ s⁻¹ |  | B6
 | 0.0669 s⁻¹ | 433000 M⁻¹ s⁻¹ | 6.47e+06 M⁻¹ | B7
 | 0.00631 s⁻¹ | 135000 M⁻¹ s⁻¹ | 2.13e+07 M⁻¹ | B8
 | 0.0678 s⁻¹ | 296000 M⁻¹ s⁻¹ |  | B9

These binders were tested against T1, mouse CD137/Fc (assay: ELISA, plate coated with mouse CD137/Fc at 2 µg/mL, detection with HRP anti-human Lambda, OD 450 nm).
Procedure: A Maxisorp plate was coated with recombinant human CD137/Fc or mouse CD137/Fc at 2 μg/mL at 4° C., overnight. The plate was blocked for 1 hour at room temperature, washed 3 times with PBS-Tween (PBST), then anti-CD137 antibodies (˜1 μg/mL) diluted in casein were added and incubated for 30 min with shaking. The plate was washed 3 times with PBST, horseradish peroxidase (HRP)-conjugated mouse anti-human Lambda (1:1000 in casein) was added, then 3,3′,5,5′-Tetramethylbenzidine (TMB) was added as substrate and developed about 5 min. 2M H₂SO₄ was used to stop the reaction and the OD was read at 450 nm.

binding result | Binder
no binding | B1
no binding | B6
no binding | B7
no binding | B9
